B1: HC-77/LC-77 anti-CD117-ADC (conjugated to an amatoxin) (antibody, V domains shown)
VH: QVQLVQSGAAVKKPGESLKISCKGSGYRFTTYWIGWVRQMPGKGLEWMGIIYPGDSDTRYSPSFQGQVTISAGKSISTAYLQWSSLKASDTAMYYCARHGRGYNGYEGAFDIWGQGTMVTVSS
VL: DIQLTQSPSSLSASVGDRVTITCRASQGVISALAWYQQKPGKAPKLLIYDASILESGVPSRFSGSGSGTDFTLTISSLQPEDFATYYCQQFNSYPLTFGGGTKVEIK
modifications: antibody conjugated to an amatoxin; site not stated
B2: HC-248/LC-248 (Ab248) (antibody, V domains shown)
VH: EVQLVQSGAEVKKPGESLKISCKGSGYRFTTSWIGWVRQMPGKGLEWMGIIYPGDSDTRYSPSFQGQVTISADKSISTAYLQWSSLKASDTAMYYCARHGLGYNGYEGAFDIWGQGTLVTVSS
VL: DIQMTQSPSSLSASVGDRVTITCRASQGIGSALAWYQQKPGKAPKLLIYDASTLESGVPSRFSGSGSGTDFTLTISSLQPEDFATYYCQQLNGYPLTFGQGTRLEIK
notes: IgG on anti-human Fc sensors; hIgG1/hKappa
B3: HC-247/LC-247 (Ab247) (antibody, V domains shown)
VH: QVQLVQSGAAVKKPGESLKISCKGSGYRFTTYWIGWVRQMPGKGLEWMGIIYPGDSDTRYSPSFQGQVTISAGKSISTAYLQWSSLKASDTAMYYCARHGRGYNGYEGAFDIWGQGTMVTVSS
VL: DIQMTQSPSSLSASVGDRVTITCRASRGISDYLAWYQQKPGKAPKLLIYDASNLETGVPSRFSGSGSGTDFTLTISSLQPEDFATYYCQQANSFPITFGQGTRLEIK
notes: as for B2
B4: HC-246/LC-246 anti-CD117-ADC (conjugated to an amatoxin) (antibody, V domains shown)
VH: QVQLVQSGAAVKKPGESLKISCKGSGYRFTTYWIGWVRQMPGKGLEWMGIIYPGDSDTRYSPSFQGQVTISAGKSISTAYLQWSSLKASDTAMYYCARHGRGYNGYEGAFDIWGQGTMVTVSS
VL: DIQMTQSPSSLSASVGDRVTITCRASQGIGSALAWYQQKPGKAPKLLIYDASTLESGVPSRFSGSGSGTDFTLTISSLQPEDFATYYCQQFNGYPLTFGQGTRLEIK
modifications: antibody conjugated to an amatoxin; site not stated
B5: HC-245/LC-245 (Ab245) (antibody, V domains shown)
VH: EVQLVQSGAEVKKPGESLKISCKGSGYRFTTSWIGWVRQMPGKGLEWMGIIYPGDSDTRYSPSFQGQVTISADKSISTAYLQWSSLKASDTAMYYCARHGLGYNGYEGAFDIWGQGTLVTVSS
VL: DIQMTQSPSSLSASVGDRVTITCRASQGIGSALAWYQQKPGKAPKLLIYDASTLESGVPSRFSGSGSGTDFTLTISSLQPEDFATYYCQQFNGYPLTFGQGTRLEIK
notes: as for B2
B6: HC-248/LC-248 anti-CD117-ADC (conjugated to an amatoxin) (antibody, V domains shown)
VH: EVQLVQSGAEVKKPGESLKISCKGSGYRFTTSWIGWVRQMPGKGLEWMGIIYPGDSDTRYSPSFQGQVTISADKSISTAYLQWSSLKASDTAMYYCARHGLGYNGYEGAFDIWGQGTLVTVSS
VL: DIQMTQSPSSLSASVGDRVTITCRASQGIGSALAWYQQKPGKAPKLLIYDASTLESGVPSRFSGSGSGTDFTLTISSLQPEDFATYYCQQLNGYPLTFGQGTRLEIK
modifications: antibody conjugated to an amatoxin; site not stated
B7: HC-79/LC-79 (Ab79) (antibody, IgG1, V domains shown)
VH: QVQLVQSGAAVKKPGESLKISCKGSGYRFTTYWIGWVRQMPGKGLEWMGIIYPGDSDTRYSPSFQGQVTISAGKSISTAYLQWSSLKASDTAMYYCARHGRGYNGYEGAFDIWGQGTMVTVSS
VL: DIQLTQSPSSLSASVGDRVTITCRASQGVGSALAWYQQKPGKAPKLLIYDASILESGVPSRFSGSGSGTDFTLTISSLQPEDFATYYCQQFNSYPLTFGGGTKVEIK
notes: Purified human antibody tested as an IgG1; hIgG1/hKappa; also called Antibody 79
B8: HC-247/LC-247 anti-CD117-ADC (conjugated to an amatoxin) (antibody, V domains shown)
VH: QVQLVQSGAAVKKPGESLKISCKGSGYRFTTYWIGWVRQMPGKGLEWMGIIYPGDSDTRYSPSFQGQVTISAGKSISTAYLQWSSLKASDTAMYYCARHGRGYNGYEGAFDIWGQGTMVTVSS
VL: DIQMTQSPSSLSASVGDRVTITCRASRGISDYLAWYQQKPGKAPKLLIYDASNLETGVPSRFSGSGSGTDFTLTISSLQPEDFATYYCQQANSFPITFGQGTRLEIK
modifications: antibody conjugated to an amatoxin; site not stated
B9: HC-245/LC-245 anti-CD117-ADC (conjugated to an amatoxin) (antibody, V domains shown)
VH: EVQLVQSGAEVKKPGESLKISCKGSGYRFTTSWIGWVRQMPGKGLEWMGIIYPGDSDTRYSPSFQGQVTISADKSISTAYLQWSSLKASDTAMYYCARHGLGYNGYEGAFDIWGQGTLVTVSS
VL: DIQMTQSPSSLSASVGDRVTITCRASQGIGSALAWYQQKPGKAPKLLIYDASTLESGVPSRFSGSGSGTDFTLTISSLQPEDFATYYCQQFNGYPLTFGQGTRLEIK
modifications: antibody conjugated to an amatoxin; site not stated
B10: HC-81/LC-81 anti-CD117-ADC (conjugated to an amatoxin) (antibody, V domains shown)
VH: QVQLVQSGAAVKKPGESLKISCKGSGYRFTTYWIGWVRQMPGKGLEWMGIIYPGDSDTRYSPSFQGQVTISAGKSISTAYLQWSSLKASDTAMYYCARHGRGYNGYEGAFDIWGQGTMVTVSS
VL: DIQLTQSPSSLSASVGDRVTITCRASQGVISALAWYQQKPGKAPKLLIYDASTLESGVPSRFSGSGSGTDFTLTISSLQPEDFATYYCQQFNSYPLTFGGGTKVEIK
modifications: antibody conjugated to an amatoxin; site not stated
B11: HC-79/LC-79 anti-CD117-ADC (conjugated to an amatoxin) (antibody, V domains shown)
VH: QVQLVQSGAAVKKPGESLKISCKGSGYRFTTYWIGWVRQMPGKGLEWMGIIYPGDSDTRYSPSFQGQVTISAGKSISTAYLQWSSLKASDTAMYYCARHGRGYNGYEGAFDIWGQGTMVTVSS
VL: DIQLTQSPSSLSASVGDRVTITCRASQGVGSALAWYQQKPGKAPKLLIYDASILESGVPSRFSGSGSGTDFTLTISSLQPEDFATYYCQQFNSYPLTFGGGTKVEIK
modifications: antibody conjugated to an amatoxin; site not stated
B12: HC-249/LC-249 (Ab249) (antibody, V domains shown)
VH: EVQLVQSGAEVKKPGESLKISCKGSGYRFTTSWIGWVRQMPGKGLEWMGIIYPGDSDTRYSPSFQGQVTISADKSISTAYLQWSSLKASDTAMYYCARHGLGYNGYEGAFDIWGQGTLVTVSS
VL: DIQMTQSPSSLSASVGDRVTITCRASQGIGSALAWYQQKPGKAPKLLIYDASNLETGVPSRFSGSGSGTDFTLTISSLQPEDFATYYCQQLNGYPLTFGQGTRLEIK
notes: as for B2
B13: HC-77/LC-77 (Ab77) (antibody, IgG1, V domains shown)
VH: QVQLVQSGAAVKKPGESLKISCKGSGYRFTTYWIGWVRQMPGKGLEWMGIIYPGDSDTRYSPSFQGQVTISAGKSISTAYLQWSSLKASDTAMYYCARHGRGYNGYEGAFDIWGQGTMVTVSS
VL: DIQLTQSPSSLSASVGDRVTITCRASQGVISALAWYQQKPGKAPKLLIYDASILESGVPSRFSGSGSGTDFTLTISSLQPEDFATYYCQQFNSYPLTFGGGTKVEIK
notes: Purified human antibody tested as an IgG1; hIgG1/hKappa; also called Antibody 77
B14: HC-1/LC-1 (Ab1) (antibody, IgG1, V domains shown)
VH: QVQLVQSGAAVKKPGESLKISCKGSGYRFTTYWIGWVRQMPGKGLEWMGIIYPGDSDTRYSPSFQGQVTISAGKSISTAYLQWSSLKASDTAMYYCARHGRGYNGYEGAFDIWGQGTMVTVSS
VL: AIQLTQSPSSLSASVGDRVTITCRASQGVSSALAWYQQKPGKAPKLLIYDASSLESGVPSRFSGSGSGTDFTLTISSLQPEDFATYYCQQFNSYPLTFGGGTKVEIK
notes: Purified IgG (IgG1); also called 001; CK6 derivative Ab1
B15: HC-246/LC-246 (Ab246) (antibody, V domains shown)
VH: QVQLVQSGAAVKKPGESLKISCKGSGYRFTTYWIGWVRQMPGKGLEWMGIIYPGDSDTRYSPSFQGQVTISAGKSISTAYLQWSSLKASDTAMYYCARHGRGYNGYEGAFDIWGQGTMVTVSS
VL: DIQMTQSPSSLSASVGDRVTITCRASQGIGSALAWYQQKPGKAPKLLIYDASTLESGVPSRFSGSGSGTDFTLTISSLQPEDFATYYCQQFNGYPLTFGQGTRLEIK
notes: as for B2
B16: HC-81/LC-81 (Ab81) (antibody, IgG1, V domains shown)
VH: QVQLVQSGAAVKKPGESLKISCKGSGYRFTTYWIGWVRQMPGKGLEWMGIIYPGDSDTRYSPSFQGQVTISAGKSISTAYLQWSSLKASDTAMYYCARHGRGYNGYEGAFDIWGQGTMVTVSS
VL: DIQLTQSPSSLSASVGDRVTITCRASQGVISALAWYQQKPGKAPKLLIYDASTLESGVPSRFSGSGSGTDFTLTISSLQPEDFATYYCQQFNSYPLTFGGGTKVEIK
notes: Purified human antibody tested as an IgG1; hIgG1/hKappa; also called Antibody 81

Experiments:
[1] = biological target: CD117 on Kasumi-1 cells and primary human CD34+ bone marrow cells (human, UniProt P10721 26-976); experiment: cell-based or functional assay
[2] = biological target: T1, purified human CD117 ectodomain (R&D Systems #332-SR) (human, UniProt P10721 26-524); experiment: BLI; kdis compared to HC-1/LC-1 (Ab1)
T1 construct: extracellular domain; Bought protein; also called c-kit; purified recombinant human CD117 ectodomain

[3] = biological target: T1, purified human CD117 ectodomain (R&D …); experiment: BLI, IgG on anti-human Fc sensor, 33 and 11 nM ectodomain;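 note: Kd, kon and koff are apparent values, with Kd reported as the apparent monovalent affinity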
[4] = biological target: T1, purified human CD117 ectodomain (R&D …); experiment: BLI (Octet Red96), IgG1 on anti-human Fc sensor, 33.3 and 11 nM ectodomain, 1:1 fit
[5] = biological target: T1, purified human CD117 ectodomain (R&D …); experiment: BLI, purified IgG on sensor, soluble ectodomain; apparent monovalent
[6] = biological target: T1, purified human CD117 ectodomain (R&D …); experiment: BLI (Octet Red96), IgG on anti-human Fc sensor, 33.3 and 11 nM ectodomain

Chain of CD117 on Kasumi-1 cells and primary human CD34+ bone marrow cells (P10721 26-976): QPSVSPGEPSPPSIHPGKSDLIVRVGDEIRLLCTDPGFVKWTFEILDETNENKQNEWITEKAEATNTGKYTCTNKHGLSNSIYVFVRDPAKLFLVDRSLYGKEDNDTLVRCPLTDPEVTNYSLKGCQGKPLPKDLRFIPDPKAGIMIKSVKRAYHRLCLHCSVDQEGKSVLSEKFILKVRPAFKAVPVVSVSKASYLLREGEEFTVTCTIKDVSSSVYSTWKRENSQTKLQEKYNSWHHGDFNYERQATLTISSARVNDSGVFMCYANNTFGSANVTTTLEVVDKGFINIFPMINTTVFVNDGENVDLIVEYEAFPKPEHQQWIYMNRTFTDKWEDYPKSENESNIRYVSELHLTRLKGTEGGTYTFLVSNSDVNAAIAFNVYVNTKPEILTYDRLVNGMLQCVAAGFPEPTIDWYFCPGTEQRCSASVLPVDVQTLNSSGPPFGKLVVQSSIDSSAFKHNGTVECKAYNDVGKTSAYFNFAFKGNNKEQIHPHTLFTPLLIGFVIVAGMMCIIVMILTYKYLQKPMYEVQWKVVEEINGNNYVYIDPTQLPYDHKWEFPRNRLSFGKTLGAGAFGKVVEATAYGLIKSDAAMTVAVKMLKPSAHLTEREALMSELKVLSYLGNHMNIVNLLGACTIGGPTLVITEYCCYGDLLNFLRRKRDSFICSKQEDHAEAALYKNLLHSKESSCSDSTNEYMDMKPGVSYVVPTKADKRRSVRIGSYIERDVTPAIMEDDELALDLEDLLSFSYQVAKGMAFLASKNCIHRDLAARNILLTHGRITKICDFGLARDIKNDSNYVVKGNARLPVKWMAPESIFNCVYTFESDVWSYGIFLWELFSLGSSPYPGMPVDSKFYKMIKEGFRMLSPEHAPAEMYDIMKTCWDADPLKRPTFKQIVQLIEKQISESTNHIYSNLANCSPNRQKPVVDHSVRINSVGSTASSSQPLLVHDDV
T1 sequence (P10721 26-524): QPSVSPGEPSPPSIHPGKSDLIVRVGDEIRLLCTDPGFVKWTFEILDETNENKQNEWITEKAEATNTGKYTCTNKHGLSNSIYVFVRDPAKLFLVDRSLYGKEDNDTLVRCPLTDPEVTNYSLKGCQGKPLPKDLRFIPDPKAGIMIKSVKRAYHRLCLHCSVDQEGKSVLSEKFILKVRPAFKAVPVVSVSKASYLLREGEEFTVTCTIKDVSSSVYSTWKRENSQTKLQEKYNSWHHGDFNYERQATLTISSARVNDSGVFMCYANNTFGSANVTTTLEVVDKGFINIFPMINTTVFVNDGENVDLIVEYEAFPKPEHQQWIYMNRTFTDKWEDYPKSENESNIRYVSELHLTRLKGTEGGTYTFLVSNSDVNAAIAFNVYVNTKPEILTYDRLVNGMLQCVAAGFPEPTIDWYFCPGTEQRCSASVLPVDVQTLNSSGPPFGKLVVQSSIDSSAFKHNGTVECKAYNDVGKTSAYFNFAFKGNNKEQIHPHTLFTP

Binder | % efficacy, killing of primary human CD34+CD90+ cells [1] [%] | IC50, killing of primary human CD34+CD90+ cells (5 days, flow cytometry counts) [1] [nM] | Fold improvement (off-rate) [2] [fold] | Kd [3] [nM] | koff [3] [s⁻¹] | kon [3] [M⁻¹ s⁻¹] | other results
B1 | 54.4 | 0.00694 | – | – | – | – | –
B2 | – | – | 7.1 | 0.922 | 0.000319 | 346000 | –
B3 | – | – | 3.6 | 1.68 | 0.00063 | 374000 | –
B4 | 67.8 | 0.00453 | – | – | – | – | –
B5 | – | – | 7.9 | 0.813 | 0.000285 | 350000 | –
B6 | 47.8 | 0.00646 | – | – | – | – | –
B7 | – | – | 4.7 | 1.52 | 0.000478 | 316000 | Kd [4]: 1.52 nM; koff [4]: 0.000478 s⁻¹; kon [4]: 316000 M⁻¹ s⁻¹
B8 | 55.4 | 0.00837 | – | – | – | – | –
B9 | 76.4 | 0.00578 | – | – | – | – | –
B10 | 68.7 | 0.00377 | – | – | – | – | –
B11 | 63.4 | 0.00709 | – | – | – | – | –
B12 | – | – | 12 | 0.551 | 0.000189 | 344000 | –
B13 | – | – | 10.5 | 0.684 | 0.000215 | 315000 | Kd [4]: 0.684 nM; koff [4]: 0.000215 s⁻¹; kon [4]: 315000 M⁻¹ s⁻¹
B14 | – | – | – | 4.09 | 0.00227 | 556000 | Kd [5]: 2.81 nM; koff [5]: 0.000848 s⁻¹; kon [5]: 302000 M⁻¹ s⁻¹; Kd [6]: 4.09 nM; koff [6]: 0.00227 s⁻¹; kon [6]: 556000 M⁻¹ s⁻¹; Kd [4]: 3.1 nM; koff [4]: 0.0013 s⁻¹; kon [4]: 420000 M⁻¹ s⁻¹
B15 | – | – | 8.9 | 0.708 | 0.000255 | 361000 | –
B16 | – | – | 9 | 0.877 | 0.000252 | 288000 | Kd [4]: 0.877 nM; koff [4]: 0.000252 s⁻¹; kon [4]: 288000 M⁻¹ s⁻¹

Reference: patent publication US20240360238A1 (MAGENTA THERAPEUTICS, published 2024)
